Numbered stars: 1 amine (or outer) side, 2 acyl side, 3 side chain; on linkers, the order of the positions; unused ones are H or OH. Bridge positions count the residues as written; N and C are the ends. Side chains are listed from the residue outwards. Ends that are not written are not given here. * marks the point of attachment. C20 diacid = O=C(O)CCCCCCCCCCCCCCCCCCC(=O)*; γGlu = O=C(O)[C@H](CCC(=O)[*:2])N[*:1]; AEEA = NCCOCCOCC(=O)O
T1: human amylin receptor (amylin 3(a) receptor: human calcitonin receptor co-expressed with RAMP-3) (human, UniProt P30988 25-474; O60896 24-148, limits assumed)
T1 sequence (looked up) 1: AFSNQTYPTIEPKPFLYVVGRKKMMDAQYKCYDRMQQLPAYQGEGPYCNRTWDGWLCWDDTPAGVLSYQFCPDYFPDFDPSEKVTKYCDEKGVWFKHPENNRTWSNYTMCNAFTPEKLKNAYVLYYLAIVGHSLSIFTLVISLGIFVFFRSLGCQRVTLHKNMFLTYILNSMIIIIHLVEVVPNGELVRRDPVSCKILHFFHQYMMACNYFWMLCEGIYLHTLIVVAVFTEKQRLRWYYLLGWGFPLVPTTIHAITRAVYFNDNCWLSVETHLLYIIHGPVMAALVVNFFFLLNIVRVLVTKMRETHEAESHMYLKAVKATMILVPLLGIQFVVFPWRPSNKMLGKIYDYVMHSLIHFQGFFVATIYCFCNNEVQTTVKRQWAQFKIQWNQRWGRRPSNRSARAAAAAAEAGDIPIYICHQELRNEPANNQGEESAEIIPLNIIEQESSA
T1 sequence (looked up) 2: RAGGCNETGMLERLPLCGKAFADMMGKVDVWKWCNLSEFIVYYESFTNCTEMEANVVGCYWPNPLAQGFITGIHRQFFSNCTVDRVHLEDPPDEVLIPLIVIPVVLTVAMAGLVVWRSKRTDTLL

T2: human calcitonin receptor (human, UniProt P30988 25-474)
T2 sequence (looked up): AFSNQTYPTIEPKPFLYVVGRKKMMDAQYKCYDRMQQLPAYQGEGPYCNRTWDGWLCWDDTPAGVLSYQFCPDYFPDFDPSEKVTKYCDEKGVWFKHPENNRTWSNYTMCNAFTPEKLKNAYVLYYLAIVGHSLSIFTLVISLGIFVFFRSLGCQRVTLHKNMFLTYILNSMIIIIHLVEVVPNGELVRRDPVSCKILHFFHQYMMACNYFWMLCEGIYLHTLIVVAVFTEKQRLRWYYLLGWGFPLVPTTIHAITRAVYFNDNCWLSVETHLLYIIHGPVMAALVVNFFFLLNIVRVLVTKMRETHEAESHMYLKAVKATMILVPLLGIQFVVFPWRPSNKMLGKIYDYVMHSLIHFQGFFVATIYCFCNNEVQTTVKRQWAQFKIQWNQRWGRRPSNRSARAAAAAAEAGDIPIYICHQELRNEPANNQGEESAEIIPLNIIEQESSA

T3: rat calcitonin receptor (rat, UniProt P32214 25-516)
T3 construct: whole, on cells; Used as membranes prepared from the transfected cells; also called rCTR; rCT
T3 sequence (looked up): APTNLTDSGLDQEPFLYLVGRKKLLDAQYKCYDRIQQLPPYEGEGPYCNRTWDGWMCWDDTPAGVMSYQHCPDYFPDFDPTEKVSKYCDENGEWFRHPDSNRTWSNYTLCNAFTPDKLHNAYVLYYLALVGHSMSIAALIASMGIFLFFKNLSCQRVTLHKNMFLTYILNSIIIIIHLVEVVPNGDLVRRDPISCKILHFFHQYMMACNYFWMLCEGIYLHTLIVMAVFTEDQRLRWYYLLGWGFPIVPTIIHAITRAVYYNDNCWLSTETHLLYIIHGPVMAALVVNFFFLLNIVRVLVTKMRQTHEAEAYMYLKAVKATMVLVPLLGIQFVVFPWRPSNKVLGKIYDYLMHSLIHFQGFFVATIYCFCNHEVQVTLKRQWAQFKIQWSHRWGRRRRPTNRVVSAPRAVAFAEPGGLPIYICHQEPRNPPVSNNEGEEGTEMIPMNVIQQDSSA

T4: human calcitonin receptor (human, UniProt P30988 25-474)
T4 construct: whole, on cells; Used as membranes prepared from the transfected cells; also called hCTR; hCT
T4 sequence (looked up): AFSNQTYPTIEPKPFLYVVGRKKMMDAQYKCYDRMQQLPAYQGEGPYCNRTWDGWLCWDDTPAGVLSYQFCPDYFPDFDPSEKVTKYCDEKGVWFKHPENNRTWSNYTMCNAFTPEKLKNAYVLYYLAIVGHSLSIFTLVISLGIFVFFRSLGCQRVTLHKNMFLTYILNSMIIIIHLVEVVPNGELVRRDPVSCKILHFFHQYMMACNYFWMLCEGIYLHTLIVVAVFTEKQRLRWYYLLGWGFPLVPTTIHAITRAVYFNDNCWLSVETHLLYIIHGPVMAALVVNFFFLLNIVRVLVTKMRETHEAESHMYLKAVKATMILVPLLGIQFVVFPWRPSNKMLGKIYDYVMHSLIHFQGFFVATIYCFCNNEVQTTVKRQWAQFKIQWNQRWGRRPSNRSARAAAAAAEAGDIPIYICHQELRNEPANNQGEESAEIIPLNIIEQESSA


Legend:
[1] = target: T1, human amylin receptor (amylin 3(a) …); test: cell-based or functional assay
[2] = target: T2, human calcitonin receptor; test: cell-based or functional assay
rat calcitonin receptor [3] = target: T3, rat calcitonin receptor; test: SPA competition with 125I-calcitonin, membranes with rat calcitonin receptor (Assay VIII)
rat calcitonin receptor [4] = target: T3, rat calcitonin receptor; test: ratio of binding IC50 at rat calcitonin receptor to IC50 at rat amylin receptor (reference)
[5] = target: T4, human calcitonin receptor; test: ratio of binding IC50 at human calcitonin receptor to IC50 at human amylin receptor (reference)
Summary of the method: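 Competition binding by SPA uses membrane preparations (35 ng/μL final) in pH 7.4 Hepes buffer with 1 mM CaCl2 and 5 mM MgCl₂. Incubation lasts 120 min at 25° C, and IC₅₀ comes from one-site fitting.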

| hAmylin-R funct. EC50 [1] | Ratio hCT/hAmylin funct. (hCTR EC50 against hAmylin-R EC50) [2] | hCTR funct. EC50 [2] | IC50 (rat calcitonin receptor [3]) | Ratio rCT/rAmylin binding (rat calcitonin receptor [4]) | Ratio hCT/hAmylin binding [5] | Binder |
| --- | --- | --- | --- | --- | --- | --- |
| 0.26 nM | 16.7 | 4.35 nM | – | – | – | K([AEEA-γGlu-C20 diacid])CNTATCATQRLANFLRHSSPNFGAIPSSTNVGSNTY-NH2 (disulfide 2-7; N-terminus assumed; SMILES CC[C@H](C)[C@H](NC(=O)[C@H](C)NC(=O)CNC(=O)[C@H](Cc1ccccc1)NC(=O)[C@H](CC(N)=O)NC(=O)[C@@H]1CCCN1C(=O)[C@H](CO)NC(=O)[C@H](CO)NC(=O)[C@H](Cc1c[nH]cn1)NC(=O)[C@H](CCCNC(=N)N)NC(=O)[C@H](CC(C)C)NC(=O)[C@H](Cc1ccccc1)NC(=O)[C@H](CC(N)=O)NC(=O)[C@H](C)NC(=O)[C@H](CC(C)C)NC(=O)[C@H](CCCNC(=N)N)NC(=O)[C@H](CCC(N)=O)NC(=O)[C@@H](NC(=O)[C@H](C)NC(=O)[C@@H]1CSSC[C@H](NC(=O)[C@@H](N)CCCCNC(=O)COCCOCCNC(=O)CC[C@H](NC(=O)CCCCCCCCCCCCCCCCCCC(=O)O)C(=O)O)C(=O)N[C@@H](CC(N)=O)C(=O)N[C@@H]([C@@H](C)O)C(=O)N[C@@H](C)C(=O)N[C@@H]([C@@H](C)O)C(=O)N1)[C@@H](C)O)C(=O)N1CCC[C@H]1C(=O)N[C@@H](CO)C(=O)N[C@@H](CO)C(=O)N[C@H](C(=O)N[C@@H](CC(N)=O)C(=O)N[C@H](C(=O)NCC(=O)N[C@@H](CO)C(=O)N[C@@H](CC(N)=O)C(=O)N[C@H](C(=O)N[C@@H](Cc1ccc(O)cc1)C(N)=O)[C@@H](C)O)C(C)C)[C@@H](C)O, also called compound 41) |
| 0.164 nM | 16.4 | – | – | – | – | KCNTATCATQRLANFLRHSSPNFGAIPSSTNVGHNTY (alpha amino group of the N-terminal residue (Lys1) acylated with C20 diacid-gGlu; disulfide bridge Cys2-Cys7; C-terminal amide, also called compound 40) [N^α1-[(4S)-4-carboxy-4-(19-carboxynonadecanoylamino)butanoyl]-[Arg17,Pro21,Pro27,His34]-h-amylin] |
| 0.106 nM | 44.9 | 4.76 nM | – | – | – | K([AEEA-γGlu-C20 diacid])CNTATCATQRLAAFLRHSSPNFGAIPSSTPVGSNTY-NH2 (disulfide 2-7; N-terminus assumed; SMILES CC[C@H](C)[C@H](NC(=O)[C@H](C)NC(=O)CNC(=O)[C@H](Cc1ccccc1)NC(=O)[C@H](CC(N)=O)NC(=O)[C@@H]1CCCN1C(=O)[C@H](CO)NC(=O)[C@H](CO)NC(=O)[C@H](Cc1c[nH]cn1)NC(=O)[C@H](CCCNC(=N)N)NC(=O)[C@H](CC(C)C)NC(=O)[C@H](Cc1ccccc1)NC(=O)[C@H](C)NC(=O)[C@H](C)NC(=O)[C@H](CC(C)C)NC(=O)[C@H](CCCNC(=N)N)NC(=O)[C@H](CCC(N)=O)NC(=O)[C@@H](NC(=O)[C@H](C)NC(=O)[C@@H]1CSSC[C@H](NC(=O)[C@@H](N)CCCCNC(=O)COCCOCCNC(=O)CC[C@H](NC(=O)CCCCCCCCCCCCCCCCCCC(=O)O)C(=O)O)C(=O)N[C@@H](CC(N)=O)C(=O)N[C@@H]([C@@H](C)O)C(=O)N[C@@H](C)C(=O)N[C@@H]([C@@H](C)O)C(=O)N1)[C@@H](C)O)C(=O)N1CCC[C@H]1C(=O)N[C@@H](CO)C(=O)N[C@@H](CO)C(=O)N[C@H](C(=O)N1CCC[C@H]1C(=O)N[C@H](C(=O)NCC(=O)N[C@@H](CO)C(=O)N[C@@H](CC(N)=O)C(=O)N[C@H](C(=O)N[C@@H](Cc1ccc(O)cc1)C(N)=O)[C@@H](C)O)C(C)C)[C@@H](C)O, also called compound 72) |
| 0.378 nM | 60.7 | 22.9 nM | – | – | – | K([AEEA-γGlu-C20 diacid])CNTATCATQRLARFLRHSSPNFGAIPSSTPVGSNTY-NH2 (disulfide 2-7; N-terminus assumed; SMILES CC[C@H](C)[C@H](NC(=O)[C@H](C)NC(=O)CNC(=O)[C@H](Cc1ccccc1)NC(=O)[C@H](CC(N)=O)NC(=O)[C@@H]1CCCN1C(=O)[C@H](CO)NC(=O)[C@H](CO)NC(=O)[C@H](Cc1c[nH]cn1)NC(=O)[C@H](CCCNC(=N)N)NC(=O)[C@H](CC(C)C)NC(=O)[C@H](Cc1ccccc1)NC(=O)[C@H](CCCNC(=N)N)NC(=O)[C@H](C)NC(=O)[C@H](CC(C)C)NC(=O)[C@H](CCCNC(=N)N)NC(=O)[C@H](CCC(N)=O)NC(=O)[C@@H](NC(=O)[C@H](C)NC(=O)[C@@H]1CSSC[C@H](NC(=O)[C@@H](N)CCCCNC(=O)COCCOCCNC(=O)CC[C@H](NC(=O)CCCCCCCCCCCCCCCCCCC(=O)O)C(=O)O)C(=O)N[C@@H](CC(N)=O)C(=O)N[C@@H]([C@@H](C)O)C(=O)N[C@@H](C)C(=O)N[C@@H]([C@@H](C)O)C(=O)N1)[C@@H](C)O)C(=O)N1CCC[C@H]1C(=O)N[C@@H](CO)C(=O)N[C@@H](CO)C(=O)N[C@H](C(=O)N1CCC[C@H]1C(=O)N[C@H](C(=O)NCC(=O)N[C@@H](CO)C(=O)N[C@@H](CC(N)=O)C(=O)N[C@H](C(=O)N[C@@H](Cc1ccc(O)cc1)C(N)=O)[C@@H](C)O)C(C)C)[C@@H](C)O, also called compound 64) |
| 0.217 nM | 11.6 | 2.52 nM | – | – | – | KCNTATCATQRLANFLRHSSPNFGAIPSSTNVGRNTY (alpha amino group of the N-terminal residue (Lys1) acylated with C20 diacid-gGlu; disulfide bridge Cys2-Cys7; C-terminal amide, also called compound 39) [N^α1-[(4S)-4-carboxy-4-(19-carboxynonadecanoylamino)butanoyl]-[Arg17,Pro21,Pro27,Arg34]-h-amylin] |
| – | – | – | 104 nM | 156 | 145 | K([γGlu-γGlu-C20 diacid])CNTATCATQRLAHFLRHSSPNFGAIPSSTNVGSNTY-NH2 (disulfide 2-7; N-terminus assumed; SMILES CC[C@H](C)[C@H](NC(=O)[C@H](C)NC(=O)CNC(=O)[C@H](Cc1ccccc1)NC(=O)[C@H](CC(N)=O)NC(=O)[C@@H]1CCCN1C(=O)[C@H](CO)NC(=O)[C@H](CO)NC(=O)[C@H](Cc1c[nH]cn1)NC(=O)[C@H](CCCNC(=N)N)NC(=O)[C@H](CC(C)C)NC(=O)[C@H](Cc1ccccc1)NC(=O)[C@H](Cc1c[nH]cn1)NC(=O)[C@H](C)NC(=O)[C@H](CC(C)C)NC(=O)[C@H](CCCNC(=N)N)NC(=O)[C@H](CCC(N)=O)NC(=O)[C@@H](NC(=O)[C@H](C)NC(=O)[C@@H]1CSSC[C@H](NC(=O)[C@@H](N)CCCCNC(=O)CC[C@H](NC(=O)CC[C@H](NC(=O)CCCCCCCCCCCCCCCCCCC(=O)O)C(=O)O)C(=O)O)C(=O)N[C@@H](CC(N)=O)C(=O)N[C@@H]([C@@H](C)O)C(=O)N[C@@H](C)C(=O)N[C@@H]([C@@H](C)O)C(=O)N1)[C@@H](C)O)C(=O)N1CCC[C@H]1C(=O)N[C@@H](CO)C(=O)N[C@@H](CO)C(=O)N[C@H](C(=O)N[C@@H](CC(N)=O)C(=O)N[C@H](C(=O)NCC(=O)N[C@@H](CO)C(=O)N[C@@H](CC(N)=O)C(=O)N[C@H](C(=O)N[C@@H](Cc1ccc(O)cc1)C(N)=O)[C@@H](C)O)C(C)C)[C@@H](C)O, Analogue of human amylin; disulfide and C-terminal amide as told for h-amylin; also called compound 92) |
